For orientation: Kd means the constant that tells how readily two partners part at equilibrium. Higher therefore signals weaker binding.

Binding result and Kd data for eight molecules are collected here from patent US20230087785A1, “Leucine-Rich Repeat Kinase 2 Allosteric Modulators” (VIB VZW, priority 2020, published 2023).

Sequences and labels used below:
T1: LRRK2 kinase-WD40 domain construct (human, UniProt Q5S007 1876-2527)
T1 construct: also called K-WD40; not shown: N-terminal His-tag (pFastBac)
T1 sequence: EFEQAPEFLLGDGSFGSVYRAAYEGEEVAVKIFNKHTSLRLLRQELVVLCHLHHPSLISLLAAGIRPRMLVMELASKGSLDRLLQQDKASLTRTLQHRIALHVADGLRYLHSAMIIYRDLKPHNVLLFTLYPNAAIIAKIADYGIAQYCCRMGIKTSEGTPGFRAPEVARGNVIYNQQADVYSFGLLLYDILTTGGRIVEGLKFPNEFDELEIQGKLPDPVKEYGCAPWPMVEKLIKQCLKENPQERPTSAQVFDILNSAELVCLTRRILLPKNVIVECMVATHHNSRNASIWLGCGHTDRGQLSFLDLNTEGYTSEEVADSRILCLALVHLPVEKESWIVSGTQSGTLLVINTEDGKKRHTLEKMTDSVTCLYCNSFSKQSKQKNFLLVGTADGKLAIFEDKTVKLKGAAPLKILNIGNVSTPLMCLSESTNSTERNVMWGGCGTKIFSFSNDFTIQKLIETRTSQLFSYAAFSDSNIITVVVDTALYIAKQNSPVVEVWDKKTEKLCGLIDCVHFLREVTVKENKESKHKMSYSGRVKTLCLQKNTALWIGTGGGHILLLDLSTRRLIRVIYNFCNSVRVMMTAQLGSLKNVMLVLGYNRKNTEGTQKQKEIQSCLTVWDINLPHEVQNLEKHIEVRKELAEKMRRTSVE

T2: LRRK2 Roc domain construct (human, UniProt Q5S007 1329-1520)
T2 construct: not shown: N-terminal His6-tag of pET-28a
T2 sequence: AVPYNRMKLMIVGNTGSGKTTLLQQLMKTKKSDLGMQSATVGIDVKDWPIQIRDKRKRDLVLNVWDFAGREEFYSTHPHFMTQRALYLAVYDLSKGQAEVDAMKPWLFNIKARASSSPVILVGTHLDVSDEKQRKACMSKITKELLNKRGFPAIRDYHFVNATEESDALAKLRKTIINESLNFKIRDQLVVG

T3: LRRK2 RocCOR domain construct (human, UniProt Q5S007 1334-1840)
T3 construct: A second construct (residues 1293-1840, N-terminal His6-MBP) was used in certain screening experiments; not shown: N-terminal Twin-Strep-tag; C-terminal His10-tag
T3 sequence: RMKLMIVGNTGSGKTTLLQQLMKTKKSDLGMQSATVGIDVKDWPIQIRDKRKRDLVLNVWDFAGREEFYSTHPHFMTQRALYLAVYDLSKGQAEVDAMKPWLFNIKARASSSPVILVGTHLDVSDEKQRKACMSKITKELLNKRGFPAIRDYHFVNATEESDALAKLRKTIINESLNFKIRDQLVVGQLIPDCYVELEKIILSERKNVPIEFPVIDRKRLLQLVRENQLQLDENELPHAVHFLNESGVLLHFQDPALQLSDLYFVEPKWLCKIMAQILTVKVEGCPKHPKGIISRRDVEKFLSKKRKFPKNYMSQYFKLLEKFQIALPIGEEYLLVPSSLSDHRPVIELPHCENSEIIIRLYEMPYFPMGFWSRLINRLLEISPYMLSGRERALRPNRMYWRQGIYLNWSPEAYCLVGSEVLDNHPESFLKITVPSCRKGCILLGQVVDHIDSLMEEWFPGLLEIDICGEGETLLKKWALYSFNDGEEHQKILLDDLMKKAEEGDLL

B1: Nb37 (CA14131) (VHH)
VHH: QVQLVESGGGLVQPGGSLRLSCAASGSVFSTNTMAWFRQAPGKQREWVGGITPGGFTNYINSVKGRFTISRDNANNTIYLQMSSLRPEDTAVYYCNTLSRMALWGQGTQVTVSS
B2: Nb17 (CA13606) (VHH)
VHH: QVQLVESGGGLVQPGGSLRLSCAASGSNIGYMAWYRQAPGSQRELVARIASGGSANYADSVKGRFTISRDNVKNTVYLHMNSLKPVDTAVYYCHADAWYNSRWSDYWGQGTQVTVSS
B3: Nb39 (CA14134) (VHH)
VHH: QVQLVESGGGLVQAGGSLRLSCRASGGTFSTYAMGWFRQVPGKERETVAAVKWSGDMTYYADSVKGRFTISRDNAKNTVYLQMNSLRPEDTAVYYCAARRGLSYYRGPSEYDYWGQGTQVTVSS
B4: Nb36 (CA14130) (VHH)
VHH: QVQLVESGGGLVQPGGSLRLSCAASGSIRSITTSAWFRQPPGKQRELVAGISSGTSTNYADSVKGRFTISRDNAKNTVYLQMNSLKPEDTAVYYCHVWISGTWYSGQGTQVTVSS
B5: Nb38 (CA14133) (VHH)
VHH: B4 VHH with T32A, F37Y, S56T, V97A, Y104I
B6: Nb35 (CA16072) (VHH)
VHH: QVQLVESGGGLVQPGGSLRLSCAASGFPFSTYYMSWVRQAPGKGLEWVSAISPGGDTAYADSVKDRFTISRDSAKNTVYLQMSSLKPEDTAVYYCAAVRFLRAPDLTEKRLYEYWGQGTQVTVSS
B7: Nb22 (CA13611) (VHH)
VHH: QVQLVESGGGLVQAGGSLRLSCAASGRTFSSYTMGWFRQAPGKEREFVAAIRWSGGSTYYADSVKGRFTISRDNAKNTVYLQMNSLKPEDTAVYYCAASDRGGFIATSGGWMDYWGKGTQVTVSS
B8: Nb3 (CA12614) (VHH)
VHH: QVQLVESGGGLVQPGGSLRLSCAASGSIFRRNAMGWYRQVTGKERELVAGITSGGYTNYRDFVKGRFTISRDNAKNTVYLQMNNLKPEDTAVYYCNLLSEMLQTVWGQGTQVTVSS

Changes are numbered by the printed parent chain.

T5 sequence (Q5S007 other isoform, or with tags, fused parts or gaps limits assumed): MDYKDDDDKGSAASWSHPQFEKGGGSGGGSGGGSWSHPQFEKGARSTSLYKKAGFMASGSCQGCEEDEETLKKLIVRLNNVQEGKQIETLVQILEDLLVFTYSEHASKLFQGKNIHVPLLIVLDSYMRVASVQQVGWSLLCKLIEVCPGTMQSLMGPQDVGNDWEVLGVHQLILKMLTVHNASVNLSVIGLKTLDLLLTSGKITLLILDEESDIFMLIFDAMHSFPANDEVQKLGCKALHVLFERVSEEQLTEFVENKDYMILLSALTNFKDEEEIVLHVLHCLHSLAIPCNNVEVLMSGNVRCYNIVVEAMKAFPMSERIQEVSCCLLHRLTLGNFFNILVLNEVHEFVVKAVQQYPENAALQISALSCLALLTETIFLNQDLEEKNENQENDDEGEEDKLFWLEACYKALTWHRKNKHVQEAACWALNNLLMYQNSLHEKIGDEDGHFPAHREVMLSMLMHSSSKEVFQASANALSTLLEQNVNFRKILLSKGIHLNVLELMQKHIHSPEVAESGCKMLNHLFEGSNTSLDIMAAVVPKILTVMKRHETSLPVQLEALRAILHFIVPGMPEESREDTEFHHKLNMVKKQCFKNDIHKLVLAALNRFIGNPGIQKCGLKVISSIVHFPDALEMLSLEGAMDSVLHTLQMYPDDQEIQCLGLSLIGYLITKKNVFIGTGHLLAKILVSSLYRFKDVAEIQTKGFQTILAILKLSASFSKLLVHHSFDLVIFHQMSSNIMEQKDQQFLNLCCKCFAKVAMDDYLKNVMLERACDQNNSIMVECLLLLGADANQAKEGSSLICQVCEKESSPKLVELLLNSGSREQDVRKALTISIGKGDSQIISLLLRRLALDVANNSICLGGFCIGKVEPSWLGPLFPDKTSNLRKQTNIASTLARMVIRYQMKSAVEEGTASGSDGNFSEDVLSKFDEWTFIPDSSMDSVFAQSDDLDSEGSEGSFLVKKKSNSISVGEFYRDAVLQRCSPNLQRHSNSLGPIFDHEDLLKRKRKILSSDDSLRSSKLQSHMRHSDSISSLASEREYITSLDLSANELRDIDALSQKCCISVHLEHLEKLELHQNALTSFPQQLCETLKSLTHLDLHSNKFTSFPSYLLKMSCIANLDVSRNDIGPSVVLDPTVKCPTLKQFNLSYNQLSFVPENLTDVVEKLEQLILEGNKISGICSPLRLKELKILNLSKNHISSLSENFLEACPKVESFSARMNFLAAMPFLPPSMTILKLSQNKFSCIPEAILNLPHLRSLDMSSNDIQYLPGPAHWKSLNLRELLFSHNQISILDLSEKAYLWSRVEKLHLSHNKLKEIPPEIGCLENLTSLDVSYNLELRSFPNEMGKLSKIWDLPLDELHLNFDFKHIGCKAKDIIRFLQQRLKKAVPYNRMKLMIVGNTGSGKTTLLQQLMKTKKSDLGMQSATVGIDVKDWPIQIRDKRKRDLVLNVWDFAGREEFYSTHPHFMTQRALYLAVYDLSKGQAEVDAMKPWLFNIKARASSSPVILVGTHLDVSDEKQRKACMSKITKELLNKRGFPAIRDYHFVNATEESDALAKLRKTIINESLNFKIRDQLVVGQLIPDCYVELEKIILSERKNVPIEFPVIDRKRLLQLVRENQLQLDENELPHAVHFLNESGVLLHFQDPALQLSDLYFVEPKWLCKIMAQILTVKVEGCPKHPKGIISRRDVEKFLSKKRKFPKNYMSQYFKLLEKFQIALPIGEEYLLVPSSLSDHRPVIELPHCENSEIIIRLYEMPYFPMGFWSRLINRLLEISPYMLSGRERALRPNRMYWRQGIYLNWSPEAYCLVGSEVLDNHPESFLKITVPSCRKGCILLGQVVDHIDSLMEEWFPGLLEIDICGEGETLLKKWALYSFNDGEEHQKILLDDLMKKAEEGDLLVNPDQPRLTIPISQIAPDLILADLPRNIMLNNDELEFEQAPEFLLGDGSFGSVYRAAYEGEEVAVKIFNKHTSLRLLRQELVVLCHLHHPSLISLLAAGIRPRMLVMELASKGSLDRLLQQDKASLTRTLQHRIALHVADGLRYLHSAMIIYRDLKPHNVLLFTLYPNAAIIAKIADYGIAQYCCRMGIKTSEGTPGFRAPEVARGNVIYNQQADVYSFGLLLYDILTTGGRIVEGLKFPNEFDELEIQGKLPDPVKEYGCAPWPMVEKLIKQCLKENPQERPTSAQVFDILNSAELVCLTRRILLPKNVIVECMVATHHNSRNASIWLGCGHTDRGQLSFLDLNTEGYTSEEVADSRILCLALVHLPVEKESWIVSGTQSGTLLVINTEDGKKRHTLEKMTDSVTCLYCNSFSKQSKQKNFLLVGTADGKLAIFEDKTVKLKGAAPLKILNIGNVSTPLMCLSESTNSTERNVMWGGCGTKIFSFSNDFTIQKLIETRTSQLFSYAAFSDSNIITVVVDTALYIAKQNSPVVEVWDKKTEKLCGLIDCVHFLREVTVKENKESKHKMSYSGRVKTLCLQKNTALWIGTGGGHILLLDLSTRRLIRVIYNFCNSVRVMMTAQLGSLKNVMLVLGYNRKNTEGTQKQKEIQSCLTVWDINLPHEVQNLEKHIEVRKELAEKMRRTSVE

The first assay deals with T4, LRRK2 COR-B construct (C-terminal part of the COR domain), His6-MBP tagged (human, UniProt Q5S007 1672-1840).
T4 construct: also called (MBP-)COR-B; not shown: N-terminal His6-MBP-tag of pDEST-566
Put plainly: ELISA, purified Nb on coated domain constructs. The source says:
(§1) We recombinantly expressed and purified the RocCOR, Roc, COR-B and kinase-WD40 (K-WD40) domain constructs of LRRK2 (FIG. 7). Subsequently, we performed an ELISA in which all these domain constructs were coated in parallel next to each other in the same ELISA plate, and where we subsequently detected binding of the 42 purified Nbs. […] To enrich in Nbs directed against the Roc domain we specifically included a selection step with either Roc-GTPγS or Roc-GDP.
(In general: ELISA stands for enzyme-linked immunosorbent assay.)
Turning to B1, the binding result was “no binding”.
On to B2, for which the binding result is “no binding”.
Consider B3, for which the binding result is given as “no binding”.
On the same count and under the same terms, then B4, with “no binding”; and B5, with “no binding”.

Another assay has as its target T1, LRRK2 kinase-WD40 domain construct. As to the kind of experiment: ELISA, purified Nb on coated domain constructs.
Description: as §1
As to B1, the binding result is “no binding”.
Take B2: the binding result is given as “no binding”.
For B3, the binding result is “no binding”.
For B4, the binding result is reported as “no binding”.
With B5, the binding result is recorded as “no binding”.

The next assay has as its target T2, LRRK2 Roc domain construct. As to the kind of experiment: ELISA, purified Nb on coated domain constructs.
Description: as §1
On to B1, for which the binding result is “no binding”.
With B2, the binding result is recorded as “no binding”.
Consider B3, for which the binding result was “no binding”.
For B4, the binding result is “no binding”.
As to B5, the binding result is reported as “no binding”.

In another assay the target is T3, LRRK2 RocCOR domain construct. Put plainly: ELISA, purified Nb on coated domain constructs.
Description: as §1
For B1, the binding result was “no binding”.
Still for that read-out and setting: the same measure for B2: “no binding”.
Still for that read-out and setting: the same measure for B3: “no binding”.
B4: the binding result was “no binding”.
Same read-out and setting: then B5, with “no binding”.

The next assay addresses T4, LRRK2 COR-B construct (C-terminal part …). As to the kind of experiment: ELISA, antigen coated on the plate, purified Nb detected via its EPEA tag.
Description: as §1
With B6, the binding result is “no binding (tested: not given)”.
On to B7, for which the binding result is listed as “no binding (tested: not given)”.

Another assay concerns the target T1, LRRK2 kinase-WD40 domain construct. The description is as above.
Description: as §1
With B6, the binding result was “no binding (tested: not given)”.
On to B8, for which the binding result is “no binding (tested: not given)”.

Another assay addresses T2, LRRK2 Roc domain construct. Described as above.
Description: as §1
Consider B7, for which the binding result is “no binding (tested: not given)”.
The same measure, in the same setting: then B8, with “no binding (tested: not given)”.

For a further assay, the target named is T3, LRRK2 RocCOR domain construct. The description is as above.
Description: as §1
As for B6, the binding result is given as “no binding (tested: not given)”.
Take B7: the binding result is “no binding (tested: not given)”.

Another assay concerns the target T5, Full-length human Leucine-rich repeat kinase 2 (LRRK2), N-terminal Strep/Flag (SF) tagged (human, UniProt Q5S007 1-2527).
T5 construct: Purified from HEK293T cells in presence of GDP or GTPγS; also called FL LRRK2; FL-LRRK2
Put plainly: BLI; Nb on LRRK2 trapped on streptavidin sensor via biotinylated Nb40; steady-state fit. As to the method:
To determine the binding affinity (dissociation constant KD) of the ten Nbs for LRRK2, two methods were used in parallel: microscale thermophoresis (MST) and bio-layer interferometry (BLI). For the MST experiment, we site-specifically labeled the ten Nbs with a m-TAM RA fluorophore at its C-terminus, using sortase-mediated coupling, and then titrated increasing amounts of full-length LRRK2 to these Nbs (FIGS. 13A-13E).
Biolayer interferometry (BLI) measurements were performed using an Octet Red96 (Forte Bio, Inc.) system in a buffer containing 50 mM HEPES pH 8.0, 150 mM NaCl, 10 mM MgCl₂, 5% glycerol, 0.1% BSA, 0.05% Tween, at 25° C. and with shaking speed 1000 rpm. […] The biotinylated Nbs were first loaded on pre-equilibrated SA biosensors at a concentration of 5 μg/mL. This Nb-loaded sensor was then used to trap FL-LRRK2 from a 50 nM LRRK2 solution. […] All experiments were performed in triplicate.
In the case of B2, the Kd is 11 nM.
B7 showed an equilibrium dissociation constant (Kd) of 76 nM.
The molecule B3 came in with a dissociation constant Kd of 21 nM.
B4 yielded a Kd of 51 nM.
On the same count and under the same terms, the same measure for B5: 86 nM.

Another assay addresses T5, Full-length human Leucine-rich repeat …. Put plainly: MST; LRRK2 titrated to m-TAMRA-labelled Nb, 500 µM GDP. As to the method:
Microscale thermophoresis (MST) experiments were performed for determining equilibrium binding affinities (KD) of Nbs binding to FL-LRRK2. Therefore, Nb were site-specifically labelled at their C-terminus with m-TAMRA, using Sortase-mediated peptide exchange. The Nbs were recloned into a pHEN29 vector which is subsequently used to express and purify the Nbs with a C-terminal LPETGG-His₆-EPEA tag. Exchange of the latter peptide with an m-TAMRA-labeled GGGYK peptide (GenicBio, Shanghai, China) was performed using Sortase, and unlabeled Nb and unincorporated peptide were removed using a Ni-NTA and SEC purification step, respectively. […] After incubation at 4° C. for 30 mins, samples were loaded in capillaries and measurements were performed at 25° C. using 50-70% LED power and 80% laser intensity (laser on-time: 30 s, laser off-time: 5 s). All experiments were performed in triplicate.
Turning to B2, the affinity, expressed as Kd, was 67 nM.
With B7, binding was put at a Kd of 145 nM.
In the case of B3, the dissociation constant (Kd) came out at 79 nM.
B4 gave an equilibrium dissociation constant (Kd) of 78 nM.
Regarding B5, the Kd was found to be 48 nM.
